Experiments:
[1] = Washing test in Linitest with European-formulation detergent (Example 20); conditions: analogous to Example 19
Procedure: The washing tests were carried out in a Linitest with EMPA 117 (11 cm×11 cm; polyester/cotton blended fabric, soiled with milk, blood and permanent ink) as the test fabric (purchased from the Eidgenoessische Material pruefungsanstalt, Sankt Gallen, Switzerland)- Washing was carried out with 6 g/l IEC test detergent with perborate, type 1 (Lever Sunlicht GmbH, Mannheim; composition: 6.4% by weight linear alkylsulfonates, 2.3% by weight ethoxylated fatty alcohols with 14% ethoxy groups, 2.8% by weight sodium soap, 35% by weight sodium tripolyphosphate, 6% by weight sodium silicate, 1.5% by weight magnesium silicate, 1% by weight carboxy/methylcellulose, 0.2% by weight ethylenediaminetetraacetic acid (EDTA), 0.2% by weight optical brightener (stilbene type), 16.8% by weight sodium sulfate, and 7.8% by weight water as a spray-dried powder without bleach activator plus 20% by weight sodium perborate tetrahydrate) in water having a hardness of 15° on the German hardness scale. The pH of the wash liquor was pH 10.5. The washing time was 30 minutes at 45° C., and in each case 20 U of protease (prepared as described in Example 18) were employed per 100 ml. After the washing process was complete, the pieces of fabric were rinsed three times with tap water, dried and subsequently ironed. The reflection of the pieces of test cloth was determined four times on each side. […]

[2] = Washing test in Linitest with IEC test detergent with perborate (Example 19); conditions: pH 10.5, 30 minutes at 45° C.
Procedure: The washing tests were carried out in a Linitest with EMPA 117 (11 cm×11 cm; polyester/cotton blended fabric, soiled with milk, blood and permanent ink) as the test fabric (purchased from the Eidgenoessische Material pruefungsanstalt, Sankt Gallen, Switzerland)- Washing was carried out with 6 g/l IEC test detergent with perborate, type 1 (Lever Sunlicht GmbH, Mannheim; composition: 6.4% by weight linear alkylsulfonates, 2.3% by weight ethoxylated fatty alcohols with 14% ethoxy groups, 2.8% by weight sodium soap, 35% by weight sodium tripolyphosphate, 6% by weight sodium silicate, 1.5% by weight magnesium silicate, 1% by weight carboxy/methylcellulose, 0.2% by weight ethylenediaminetetraacetic acid (EDTA), 0.2% by weight optical brightener (stilbene type), 16.8% by weight sodium sulfate, and 7.8% by weight water as a spray-dried powder without bleach activator plus 20% by weight sodium perborate tetrahydrate) in water having a hardness of 15° on the German hardness scale. The pH of the wash liquor was pH 10.5. The washing time was 30 minutes at 45° C., and in each case 20 U of protease (prepared as described in Example 18) were employed per 100 ml. After the washing process was complete, the pieces of fabric were rinsed three times with tap water, dried and subsequently ironed. The reflection of the pieces of test cloth was determined four times on each side.

B1: Initial protease: non-mutated highly alkaline protease from Bacillus alcalophilus HA1 (DSM 5466), amino-acid sequence of FIG. 1 (SEQ. ID. NO. 2) (protein)
chain: MKKPLGKIVASTALLISVAFSSSIASAAEEAKEKYLIGFNEQEAVSEFVEQVEANDEVAILSEEEEVEIELLHEFETIPVLSVELSPEDVDALELDPAISYIEEDAEVTTMAQSVPWGISRVQAPAAHNRGLTGSGVKVAVLDTGISTHPDLNIRGGASFVPGEPSTQDGNGHGTHVAGTIAALNNSIGVLGVAPSAELYAVKVLGASGSGSVSSIAQGLEWAGNNGMHVANLSLGSPSPSATLEQAVNSATSRGVLVVAASGNSGAGSISYPARYANAMAVGATDQNNNRASFSQYGAGLDIVAPGVNVQSTYPGSTYASLNGTSMATPHVAGAAALVKQKNPSWSNV
[1]; detergent in a formulation suitable for Europe (anionic and non-ionic surfactant, sodium tripolyphosphate, sodium perborate)
  Reflection: 65.6%
[1]; relative to initial protease = 100%, detergent in a formulation suitable for Europe
  Relative Reflection: 100%
[2]; 6 g/l IEC test detergent with perborate, type 1, 20 U of protease per 100 ml, averages of 16 washing tests
  Reflection: 71.1%
[2]; relative to initial protease = 100%, IEC test detergent with perborate, 20 U protease per 100 ml
  Relative Reflection: 100%

From patent publication US5352603A, “Highly alkaline proteases” (Kali-Chemie AG, priority 1989, dated 1994)
